In patent US20100015139A1:

Assays:
human factor B (human) [1] = molecular target: human factor B (human) (UniProt P00751); assay: competition ELISA; Anti-Ba varied, factor B binding to C3b-coated plates
human factor B (human) [2] = molecular target: human factor B (human) (UniProt P00751); assay: cell-based or functional assay
human factor B (human) [3] = molecular target: human factor B (human) (UniProt P00751); assay: competition ELISA; Anti-Ba varied, factor B binding to C3b or properdin-bound C3b; range told for both formats
human factor B (human) [4] = molecular target: human factor B (human) (UniProt P00751); assay: competition ELISA; Anti-Ba varied, factor B binding to properdin-bound C3b on plates
[5] = molecular target: Ba protein (Ba fragment of factor B) (human) (UniProt P00751); assay: ELISA; antibody titrated on Ba-coated wells
Ba protein (Ba fragment of factor B) (human), sequence (P00751 other isoform, or with tags, fused parts or gaps limits assumed): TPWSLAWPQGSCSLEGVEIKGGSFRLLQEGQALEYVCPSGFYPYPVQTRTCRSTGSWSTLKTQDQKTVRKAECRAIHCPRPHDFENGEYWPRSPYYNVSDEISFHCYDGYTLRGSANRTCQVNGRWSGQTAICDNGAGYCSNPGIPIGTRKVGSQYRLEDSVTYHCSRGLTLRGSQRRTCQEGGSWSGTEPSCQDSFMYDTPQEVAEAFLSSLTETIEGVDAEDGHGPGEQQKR

human factor B (human), sequence (P00751 other isoform, or with tags, fused parts or gaps limits assumed): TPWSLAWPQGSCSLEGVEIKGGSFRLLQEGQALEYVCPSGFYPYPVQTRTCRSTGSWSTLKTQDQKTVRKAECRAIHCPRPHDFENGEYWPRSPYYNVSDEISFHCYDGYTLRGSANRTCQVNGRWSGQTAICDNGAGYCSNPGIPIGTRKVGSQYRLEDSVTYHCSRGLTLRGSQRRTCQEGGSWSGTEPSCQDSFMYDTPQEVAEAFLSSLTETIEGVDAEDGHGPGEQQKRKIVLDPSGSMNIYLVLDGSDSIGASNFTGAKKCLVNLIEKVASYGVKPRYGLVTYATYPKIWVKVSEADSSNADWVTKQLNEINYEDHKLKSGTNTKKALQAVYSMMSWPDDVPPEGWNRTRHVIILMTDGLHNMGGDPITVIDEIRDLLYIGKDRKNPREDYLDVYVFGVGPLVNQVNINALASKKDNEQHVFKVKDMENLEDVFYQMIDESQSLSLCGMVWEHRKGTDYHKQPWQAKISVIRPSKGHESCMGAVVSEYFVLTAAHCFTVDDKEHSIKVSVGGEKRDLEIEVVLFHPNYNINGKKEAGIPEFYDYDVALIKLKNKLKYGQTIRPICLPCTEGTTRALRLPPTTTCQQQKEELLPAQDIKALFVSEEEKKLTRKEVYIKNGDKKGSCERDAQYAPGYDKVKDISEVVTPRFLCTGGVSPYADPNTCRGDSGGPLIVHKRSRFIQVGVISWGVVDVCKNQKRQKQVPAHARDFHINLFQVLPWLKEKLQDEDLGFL

- IC50 (human factor B (human) [1]): 556 nM
- Inhibition of C5b-9 formation in normal human serum on LPS coated plates (AP dependent C3-convertase formation) (human factor B (human) [2]): 527 nM
- IC50 (human factor B (human) [3]): 200 to 500 nM
- IC50 (human factor B (human) [4]): 234 nM
- Kd [5]: 9.65 nM
Substance: anti-factor Ba monoclonal antibody (Quidel A225, murine)
- Inhibition of alternative pathway-dependent hemolysis of rabbit erythrocytes in 10% normal human serum (human factor B (human) [2]): 125 µg/mL
